In US20240376151A1, “STAPLED PEPTIDES AND METHODS THEREOF” (FOG PHARMACEUTICALS, INC., priority 2022, published 2024):

Biological target: T1, beta-catenin (Homo sapiens, UniProt P35222)
T1 construct: made in house; host or cells: E. coli BL21 (DE3) pLysS
T1 sequence (P35222 134-665): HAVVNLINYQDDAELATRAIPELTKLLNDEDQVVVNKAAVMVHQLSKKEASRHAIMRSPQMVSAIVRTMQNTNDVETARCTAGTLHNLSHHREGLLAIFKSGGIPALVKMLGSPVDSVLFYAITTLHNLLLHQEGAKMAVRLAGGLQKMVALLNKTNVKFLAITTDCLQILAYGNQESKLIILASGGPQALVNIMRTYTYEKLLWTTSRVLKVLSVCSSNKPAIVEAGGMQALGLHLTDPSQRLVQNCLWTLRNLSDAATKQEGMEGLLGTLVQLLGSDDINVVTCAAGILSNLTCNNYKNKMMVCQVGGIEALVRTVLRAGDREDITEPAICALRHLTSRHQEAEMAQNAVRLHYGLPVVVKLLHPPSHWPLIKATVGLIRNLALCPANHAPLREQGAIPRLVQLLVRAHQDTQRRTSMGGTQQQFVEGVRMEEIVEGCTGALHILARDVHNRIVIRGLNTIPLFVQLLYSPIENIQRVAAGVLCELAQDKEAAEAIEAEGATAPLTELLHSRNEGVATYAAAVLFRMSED
Assay: Phage Library Screening with NGS, beta-catenin
Format: binding
Settings: for Target Concentration 10 (phage screen NGS readout): beta-catenin target concentration 10; for Target Concentration 10 (phage screen NGS readout) / Target Concentration 30 (phage screen NGS readout) / Target Concentration 100 (phage screen NGS readout) / Target Concentration 300 (phage screen NGS readout): no competitor; for Target Concentration 30 (phage screen NGS readout): beta-catenin target concentration 30; for Target Concentration 100 (phage screen NGS readout): beta-catenin target concentration 100; for Target Concentration 300 (phage screen NGS readout): beta-catenin target concentration 300; for Target Concentration 1000 (phage screen NGS readout): beta-catenin target concentration 1000

Compound | Target Concentration BLANK (phage screen NGS readout) (first column) | Target Concentration BLANK (phage screen NGS readout) (fourth column) | Target Concentration BLANK (phage screen NGS readout) (second column) | Target Concentration BLANK (phage screen NGS readout) (third column) | Target Concentration 10 (phage screen NGS readout) | Target Concentration 30 (phage screen NGS readout) | Target Concentration 100 (phage screen NGS readout) | Target Concentration 300 (phage screen NGS readout) | Target Concentration 1000 (phage screen NGS readout) (first 1000 column) | Target Concentration 1000 (phage screen NGS readout) (second 1000 column)
DPAADDCVLAAHVCAYF | 7 | 0 | 1 | 0 | 8 | 46 | 144 | 397 | 407 | 343
DPAMWICEHAALNCEIR | 0 | 0 | 0 | 0 | 2 | 6 | 46 | 158 | 145 | 152
DPADDFCMWAAEHCELL | 0 | 0 | 0 | 1 | 10 | 12 | 81 | 226 | 273 | 227
DPAEAECILAAHICNIS | 0 | 0 | 0 | 0 | 10 | 0 | 37 | 39 | 51 | 52
DPAHWVCEHAALNCDQN | 0 | 0 | 1 | 0 | 0 | 2 | 47 | 96 | 104 | 118
CC(=O)N[C@@H](CC(=O)O)C(=O)N1CCC[C@H]1C(=O)N[C@@H](C)C(=O)N[C@@H](CC(C)C)C(=O)N[C@@H](Cc1c[nH]c2ccccc12)C(=O)N[C@@H](CCC(N)=O)C(=O)N[C@@H](CS)C(=O)N[C@@H](CCC(=O)O)C(=O)N[C@@H](Cc1c[nH]cn1)C(=O)N[C@@H](C)C(=O)N[C@@H](C)C(=O)N[C@@H](CC(C)C)C(=O)N[C@@H](CC(C)C)C(=O)N[C@@H](CS)C(=O)N[C@@H](CC(=O)O)C(=O)N[C@H](C(=O)N[C@@H](Cc1c[nH]cn1)C(N)=O)C(C)C | 0 | 0 | 2 | 1 | 13 | 27 | 122 | 158 | 246 | 246
DPAILDCQIAAIECEFA | 0 | 1 | 0 | 0 | 0 | 22 | 76 | 68 | 139 | 56
DPAVIQCYQAAFHCDYQ | 0 | 0 | 0 | 3 | 0 | 0 | 0 | 13 | 12 | 30
DPAHWHCEHAALLCASV | 1 | 0 | 0 | 0 | 2 | 15 | 60 | 231 | 177 | 234
DPADTECILAAHFCHYF | 0 | 0 | 2 | 0 | 0 | 1 | 39 | 81 | 78 | 49
DPAVLECHIAAWECNHT | 0 | 0 | 0 | 0 | 0 | 1 | 22 | 67 | 140 | 55
DPAVLECHIAAWECRMD | 0 | 0 | 0 | 0 | 0 | 0 | 24 | 83 | 91 | 45
DPAIADCDWAAEHCDLL | 0 | 1 | 1 | 4 | 0 | 6 | 118 | 266 | 325 | 417
DPAALSCYQAAFHCQYY | 0 | 0 | 0 | 0 | 0 | 0 | 1 | 5 | 14 | 17
